# Data reported in article PMC6389388 (Journal of molecular biology, 2019).
# B1: His-tagged hRpn10^196–306 (domain or fragment, human, UniProt P55036 196-306, looked up)
# chain: MLGLGASDFEFGVDPSADPELALALRVSMEEQRQRQEEEARRAAAASAAEAGIATTGTEDSDDALLKMTISQQEFGRTGLPDLSSMTEEEQIAYAMQMSLQGAEFGQAESA
# B2: UBQLN2 UBL domain (domain or fragment, human)
# chain: APAEPKIIKVTVKTPKEKEEFAVPENSSVQQFKEAISKRFKSQTDQLVLIFAGKILKDQDTLIQHGIHDGLTVHLVIK
# Key:
# M1 diubiquitin = M1 diubiquitin (UniProt P0CG48 1-76; P0CG48 1-76, M1 linkage between the two ubiquitins); assay: pull-down
# [1] = target: B1; assay: NMR structure
# [2] = target: B1; assay: NMR titration
binding result (M1 diubiquitin),stoichiometry N [1],KD of the secondary binding site (UIM-2) [2] [µM],Binder
binds,–,–,B1
–,2,24.8 ± 3.1,B2
